The values below come from the RNAGym collection of RNA variant scans (doi:10.1093/molbev/msab373).

The labels stand for the following.
B1: Azoarcus group I ribozyme (parent)
chain: GUGCCUUGCGCCGGGAAACCACGCAAGGGAUGGUGUCAAAUUCGGCGAAACCUAAGCGCCCGCCCGGGCGUAUGGCAACGCCGAGCCAAGCUUCGGCGCCUGCGCCGAUGAAGGUGUAGAGACUAGACGGCACCCACCUAAGGCAAACGCUAUGGUGAAGGCAUAGUCCAGGGAGUGGCGAAAGUCACACAAACCGG

In the data set the parent is B1. In words: reverse-splicing fitness (ratio to wild type); higher = more active; in vitro selection; Mg2+ level not given. A digest of the protocol:
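An in vitro group I ribozyme library with randomized positions was T7-transcribed and gel-purified. In triplicate, 10 pmol RNA in EPPS pH 7.5 was reacted with 50 pmoles of a 30-nt RNA substrate for 1 h at 37 °C across several added MgCl2 levels (1–48 mM), then stopped with EDTA. Products were reverse transcribed from a substrate-complementary primer, PCR-amplified and sequenced (HiSeq 4000). Fitness is a variant's read proportion after selection over that before, normalised to wild type.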
Regarding C82G A111U A120G A145G C150G U176A, the reverse-splicing fitness is 0.00727. As to C82A A120C A145G C150G C169U U176A, the reverse-splicing fitness stood at 0.0135. Consider A111G A120G A145G C150A U176C, for which the reverse-splicing fitness was 0.0374.

For A111U A120U A145U C150G C169U U176C, the reverse-splicing fitness was determined as 0.0031. For A111C A120U A145U C169U U176A, the reverse-splicing fitness was 0.0121.

C82U A120U C169U U176C: the reverse-splicing fitness was found to be 0.0045. In the case of A111C A120C C150G U176C, the reverse-splicing fitness is 0.0288.

For the variant C82A A111U A120G A145G C150U C169G U176G, the reverse-splicing fitness stood at 0.00517. The figure for C82U A111G A120C A145G C150G C169A U176G is 0.00661; for C82A A111G A120C A145G C150A U176A it is 0.0133; for A111C A145C C169G U176G it is 0.00691. For C82U A111C A120C C150A C169U U176A the value was 0.0178. The figure for C82G A111C A145C C150U C169A U176A is 0.0156; for C82U A111G A145G C150U C169U U176A it is 0.0132; for C82G A145G C150G C169U it is 0.011.

As to C82A A111C A120U C150G C169U U176G, the reverse-splicing fitness was 0.00331.

With C82G A111U A120G A145C U176G, the reverse-splicing fitness turned out to be 0.0065. A111G A120U A145G C150G C169U U176G: the reverse-splicing fitness was determined as 0.00319. Turning to C82U A120U U176C, the reverse-splicing fitness turned out to be 0.0796. On to C82A A120G A145G C169A U176G, for which the reverse-splicing fitness came to 0.00382.

Regarding C82G A111U A120C A145C C150A C169A U176C, the reverse-splicing fitness amounted to 0.0121.

For A111G A145C C150U U176G, the reverse-splicing fitness amounted to 0.23.

As to C82A A111U A120G A145C U176G, the reverse-splicing fitness was determined as 0.00543. In the case of C82A A111C C150A C169A U176A, the reverse-splicing fitness turned out to be 0.0188. Turning to C82G A111C A120U A145C C150G, the reverse-splicing fitness is 0.008. For C82A A145C C150G C169A U176C the value was 0.00619. In the case of C82G A111C A120G C150G, the reverse-splicing fitness turned out to be 0.00691. For the variant C82G A111U A120C A145U U176C, the reverse-splicing fitness came out at 0.0279. Turning to C82A C150A U176G, the reverse-splicing fitness was found to be 0.021.

C82G A120U C150A C169G: the reverse-splicing fitness is 0.00295. On to C82A A120C A145C C150G C169A U176A, for which the reverse-splicing fitness came to 0.0105.

With C82G A111U A145G C169G U176G, the reverse-splicing fitness worked out at 0.00557. As for C82G A111U A120C C150G C169A U176G, the reverse-splicing fitness is 0.00844. Consider A111U A120U A145C C150U U176G, for which the reverse-splicing fitness was 0.0208.

For the variant C82U A111C A120G C169G U176G, the reverse-splicing fitness worked out at 0.00413.

On to C82G A145U C150U C169G U176C, for which the reverse-splicing fitness was found to be 0.0131. As to C82U C150G, the reverse-splicing fitness came out at 0.051.

In the case of C82A A111G A145G C150A C169G U176C, the reverse-splicing fitness was 0.0256.

In the case of C82U A111U A120U A145U C150U C169U, the reverse-splicing fitness worked out at 0.00365. For C82G A111U C150A C169U the value was 0.0113; for A111U C169U U176A, 0.0279.

Take C82U A111C A145G C150U C169G U176C: the reverse-splicing fitness is 0.0158. With C82A A120C A145G C150G C169A U176A, the reverse-splicing fitness was determined as 0.0141. For C82U A111U A145C U176C the value was 0.141; for C82U A111G A120C A145G C150U C169U U176A, 0.0147.

Turning to C82U A111U A120G A145U C169G U176A, the reverse-splicing fitness came to 0.0111. For C82U A120C A145U C150G C169A U176G, the reverse-splicing fitness came out at 0.00423.

On to A111G A120G A145G C150U U176C, for which the reverse-splicing fitness stood at 0.0905. For C82G A120C A145G C150U C169G, the reverse-splicing fitness came to 0.00909. For C82U A111C A120C C150G U176G, the reverse-splicing fitness amounted to 0.00336. For C82A A111C A120G A145G C150U C169U the value was 0.00986; for C82G A111C A120G A145G C169U, 0.0104; for C82A C150U C169A U176A, 0.0169. For the variant C82G A111C A145U C150A C169A U176A, the reverse-splicing fitness is 0.0135.

In the case of C82U A111C A145G C169G, the reverse-splicing fitness was 0.00955. C82G A111G A120C A145U C150G C169A U176A: the reverse-splicing fitness was 0.0119.

C82G A111U A120G A145C C150G U176A: the reverse-splicing fitness came to 0.0058.

With C82G A111C A120G A145C C169A U176A, the reverse-splicing fitness turned out to be 0.0138.

With C82U A111C A120U A145C C169A U176G, the reverse-splicing fitness was found to be 0.0017. With C82U A111C A120U A145C C169A U176A, the reverse-splicing fitness amounted to 0.00241. Take C82A A111U C150G U176A: the reverse-splicing fitness came out at 0.00718. For the variant C82A A111C A120G A145C C150U C169A U176C, the reverse-splicing fitness amounted to 0.00619.

C82A A111U C150U C169U U176G: the reverse-splicing fitness was 0.00671. As to C82U A111C A120C A145G C150U U176G, the reverse-splicing fitness was 0.00635.

Turning to C82G A111C C150A C169U U176G, the reverse-splicing fitness is 0.0093. For A111U A145U C150G C169A U176A the value was 0.0103; for C82G A120G A145C C150A U176A, 0.0102; for C82A A111U A120G A145U C150G U176A, 0.00602.

For C82A A111G A120C C150U C169G U176G, the reverse-splicing fitness amounted to 0.00643.

On to C82A A111G A120U A145G C169U U176A, for which the reverse-splicing fitness was 0.00366. As for C82A A111C A120G A145G C169A, the reverse-splicing fitness was determined as 0.0107. The figure for C82A A111G C169A U176G is 0.00616; for C82A A111C A120U A145C C150G U176C it is 0.00415; for C82U A111U A120G A145G C150U U176C it is 0.0171. Take C82U A111U A120U A145C C150A C169G: the reverse-splicing fitness is 0.00215.

As for C82U A111C A120U A145G C150U C169A U176G, the reverse-splicing fitness is 0.00262. For C82A A111G A120G A145U C150A U176G the value was 0.00563; for A111C A145C C150A U176C, 0.104; for C82A A111U A120C C150A C169U U176G, 0.00905.

Take C82A A111G A120U A145G C150U C169U U176A: the reverse-splicing fitness stood at 0.00523. As to C82G A111C C150A C169A U176A, the reverse-splicing fitness is 0.0183. Consider C82A A145C C150U C169A U176A, for which the reverse-splicing fitness came to 0.0106. C82U A111U A120U A145G C169A U176A: the reverse-splicing fitness came out at 0.00289.
